Laboratory results as given in US20160046671A1.
Bridges are numbered along the chain shown (N, C = ends). Where no end group is shown, it is not given here. [ ]: non-standard residue; d: D form. S5 = C=CCCC[C@](C)(N)C(=O)O

Biological target: Wild-type human KRAS protein, N-terminal His6-tag fusion (human), P01116
Assay: fluorescence polarization
Conditions: modification not given

Kd: 0.021 µM
Binder: RRF[S5]GIY[S5]TNILKTEEGN (staple 4-8) [SAH-SOS A2]
